Experimental data published in publication PMC4963197 (2016).
Square brackets hold non-standard residues; d marks the D form. Ends that are not written are not given here. pS = N[C@@H](COP(=O)(O)O)C(=O)O

Experiments:
[1] = biological target: T1, G-actin (UniProt P68135 1-377); test: FP; LatB-actin
[2] = biological target: T1, G-actin; test: FP; LatB-actin; phospho-S98

Row | Binder | Kd [1] [nM] | Kd [2] [nM]
1 | {FAM}-PNLPPLSERKNVLQLKLQQRRTREELVSQGIMPPLKSPAAFHE [FAM-MRTF-A(62–104)] | 1050 | –
2 | {FAM}-PNLPPLSERKNVLQLKLQQRRTREELVSQGIMPPLKDPAAFHE [FAM-MRTF-A(62–104) S98D] | 930 | –
3 | {FAM}-LSERKNVLQLKLQQRRTREELVSQGIMPPLK[pS] [FAM-MRTF-A(67–98) phosphorylated at S98] | – | 630
4 | {FAM}-LSERKNVLQLKLQQRRTREELVSQGIMPPLKS [FAM-MRTF-A(67–98)] | 1120 | –
5 | {FAM}-PNLPPLSERKNVLQLKLQQRRTREELVSQGIMPPLK[pS]PAAFHE [FAM-MRTF-A(62–104) phosphorylated at S98] | – | 850
